Assay results as given in article PMC2581521 (2008).

Target: T1, Chordin (Xenopus laevis, UniProt Q91713)
T1 chain: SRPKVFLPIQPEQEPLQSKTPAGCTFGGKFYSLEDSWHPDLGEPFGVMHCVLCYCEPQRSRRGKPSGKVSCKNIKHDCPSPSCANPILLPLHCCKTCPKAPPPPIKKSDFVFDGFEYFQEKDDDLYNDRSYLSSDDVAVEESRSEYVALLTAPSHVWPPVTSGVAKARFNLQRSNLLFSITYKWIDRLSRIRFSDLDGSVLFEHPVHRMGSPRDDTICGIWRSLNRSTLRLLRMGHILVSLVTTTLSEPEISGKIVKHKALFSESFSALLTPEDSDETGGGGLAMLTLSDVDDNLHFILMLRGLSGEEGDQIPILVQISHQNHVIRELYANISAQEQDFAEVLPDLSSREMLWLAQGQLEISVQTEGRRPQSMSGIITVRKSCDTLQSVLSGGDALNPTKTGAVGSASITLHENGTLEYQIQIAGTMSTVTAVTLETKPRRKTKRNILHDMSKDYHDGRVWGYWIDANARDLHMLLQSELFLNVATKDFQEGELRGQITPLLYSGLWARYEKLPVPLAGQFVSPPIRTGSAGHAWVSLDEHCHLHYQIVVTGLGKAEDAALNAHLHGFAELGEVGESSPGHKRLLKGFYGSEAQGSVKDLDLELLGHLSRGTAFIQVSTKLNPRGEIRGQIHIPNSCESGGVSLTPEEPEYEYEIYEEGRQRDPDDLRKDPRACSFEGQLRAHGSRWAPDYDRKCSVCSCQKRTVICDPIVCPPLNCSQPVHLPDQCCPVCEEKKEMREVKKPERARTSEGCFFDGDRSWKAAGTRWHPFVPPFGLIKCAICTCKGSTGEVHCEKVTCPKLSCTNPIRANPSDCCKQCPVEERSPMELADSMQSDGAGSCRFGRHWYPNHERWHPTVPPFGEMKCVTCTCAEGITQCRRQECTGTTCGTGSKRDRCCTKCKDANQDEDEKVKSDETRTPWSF
Assay: SPR

B1: Crossveinless-2 (protein)
chain: not shown
Which Kd does the source give for B1 here?
Its Kd is 1.37 nM.
